Target: murine 103 gene product, transmembrane form, on the cell surface (murine) (UniProt P14719)
Assay: flow cytometry; digoxigenin-labelled 3E10 with anti-Dig-PE against CD4-FITC, on CD4+ T cells cultured with IL-4 + anti-IL-12 (TH2 conditions). This is the middle of three panels, between 5.2 % (after primary restimulation) and 41 % (after tertiary restimulation). [C) TH2, middle panel]

UniProt P14719, sequence (P14719 24-567): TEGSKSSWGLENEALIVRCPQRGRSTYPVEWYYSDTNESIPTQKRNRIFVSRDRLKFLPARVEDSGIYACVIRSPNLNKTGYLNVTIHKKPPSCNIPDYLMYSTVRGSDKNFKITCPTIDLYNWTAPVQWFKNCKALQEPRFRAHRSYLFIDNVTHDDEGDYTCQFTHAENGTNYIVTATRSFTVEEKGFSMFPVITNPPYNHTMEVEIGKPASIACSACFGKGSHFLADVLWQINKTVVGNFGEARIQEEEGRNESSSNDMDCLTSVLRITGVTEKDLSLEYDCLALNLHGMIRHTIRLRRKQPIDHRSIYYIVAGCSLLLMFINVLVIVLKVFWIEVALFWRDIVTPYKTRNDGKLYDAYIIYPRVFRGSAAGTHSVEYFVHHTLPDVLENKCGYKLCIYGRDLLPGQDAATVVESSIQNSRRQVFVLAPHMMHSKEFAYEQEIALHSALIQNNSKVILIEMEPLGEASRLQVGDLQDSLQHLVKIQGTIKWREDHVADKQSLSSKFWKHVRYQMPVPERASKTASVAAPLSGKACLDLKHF

- % of cells in the upper right quadrant (3E10+ CD4+): 11.1%
Substance: 3E10 mAb (antibody)
